The source of these data is patent US20030092631A1 (Genentech, published 2003).

Experiment [1] deals with T1, IGF-1 (human, UniProt P05019 49-118).
T1 construct: mature; also called insulin-like growth factor-1; rhIGF-1
Nature of the experiment: phage ELISA, IGF-1 on plate. As to the method:
(§1) From each round, individual peptide-displaying phage were isolated and analyzed for binding to IGF-1 in a phage ELISA by capturing the peptide-phage with IGF-1 immobilized on a plate, and detecting bound phage (see below). As a control for non-specific binding, the phage were also analyzed in a phage ELISA that used plates coated with BSA. […]
(§2) MAXISORP™ immunoplates (96-well) were coated with capture target protein for 2 hours at room temperature (100 μL at 5 μg/mL in 50 mM carbonate buffer, pH 9.6). The plates were then blocked for 1 h with 0.2% BSA in phosphate-buffered saline (PBS) and washed eight times with PBS, 0.05% TWEEN®-20 detergent. Phage particles were serially diluted into BSA blocking buffer and 100 μL were transferred to coated wells. After I h, plates were washed eight times with PBS, 0.05% TWEEN®-20 detergent, incubated with 100 μL of 1:3000 horse radish peroxidase/anti-M 13 antibody conjugate in BSA blocking buffer for 30 min. and then washed eight times with PBS, 0.05% TWEEN®-20 detergent and two times with PBS. Plates were developed using a tetramethylbenzidine substrate (TMB, Kirkegaard and Perry, Gaithersburg, Md.), stopped with 1.0 M H3PO₄, and read spectrophotometrically at 450 nm.
On the technique in general: In an ELISA, binding on a coated surface is turned into a signal by an enzyme label.

The target of experiment [2] is BSA (UniProt P02769 25-607). Nature of the experiment: phage ELISA, BSA on plate. As to the method: as §1, §2
Chain of BSA (P02769 25-607 limits assumed): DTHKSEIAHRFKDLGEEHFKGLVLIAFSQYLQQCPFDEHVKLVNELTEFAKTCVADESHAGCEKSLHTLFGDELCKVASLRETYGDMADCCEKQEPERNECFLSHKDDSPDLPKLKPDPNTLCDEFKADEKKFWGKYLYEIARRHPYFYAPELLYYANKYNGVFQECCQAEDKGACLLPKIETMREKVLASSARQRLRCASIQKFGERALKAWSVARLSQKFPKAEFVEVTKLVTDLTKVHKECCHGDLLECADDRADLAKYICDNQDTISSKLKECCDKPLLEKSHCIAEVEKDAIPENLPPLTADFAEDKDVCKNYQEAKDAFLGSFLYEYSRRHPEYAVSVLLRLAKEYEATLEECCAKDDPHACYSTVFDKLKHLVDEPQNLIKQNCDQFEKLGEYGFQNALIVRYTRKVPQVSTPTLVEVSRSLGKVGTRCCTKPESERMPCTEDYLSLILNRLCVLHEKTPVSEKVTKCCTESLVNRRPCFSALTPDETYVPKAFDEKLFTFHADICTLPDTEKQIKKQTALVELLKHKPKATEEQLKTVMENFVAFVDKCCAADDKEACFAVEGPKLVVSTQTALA

T1 sequence (P05019 49-118): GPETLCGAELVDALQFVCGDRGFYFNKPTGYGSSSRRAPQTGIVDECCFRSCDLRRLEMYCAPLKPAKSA

B1: VKDECLMSVEALKNCMGLVS (peptide)
chain: VKDECLMSVEALKNCMGLVSGGGSGGGAEGDDPAKAAFNSLQASATEYIGYAWAMVVVIVGATIGIKLFKKFTSKAS
notes: naive clone; polyvalent P8 display on phage; STII signal left out
On to B1, for which the figures for the binding result in experiment [1] and in experiment [2] were “binds” and “no binding”, respectively.

B2: VEEKCYESITALRHCMQAMQ (peptide)
chain: VEEKCYESITALRHCMQAMQGGGSGGGAEGDDPAKAAFNSLQASATEYIGYAWAMVVVIVGATIGIKLFKKFTSKAS
notes: as for B1
For the molecule B2, the binding result was “binds” in experiment [1] and “no binding” in experiment [2].

B3: HWDWTGGYWWIGREPWKEAA (peptide)
chain: HWDWTGGYWWIGREPWKEAAGGGSGGGAEGDDPAKAAFNSLQASATEYIGYAWAMVVVIVGATIGIKLFKKFTSKAS
notes: as for B1
As for B3, the binding result in experiment [1] is reported as “binds”; in experiment [2], “no binding”.

B4: EAGAESRGWLQARCGELLGV (peptide)
chain: EAGAESRGWLQARCGELLGVGGGSGGGAEGDDPAKAAFNSLQASATEYIGYAWAMVVVIVGATIGIKLFKKFTSKAS
notes: as for B1
For the molecule B4, the results for the binding result in experiment [1] and in experiment [2] were “binds” and “no binding”, respectively.

B5: GEGPECDLRQWGNLCGHWET (peptide)
chain: GEGPECDLRQWGNLCGHWETGGGSGGGAEGDDPAKAAFNSLQASATEYIGYAWAMVVVIVGATIGIKLFKKFTSKAS
notes: as for B1
Consider B5, for which the binding result in experiment [1] is “binds”; in experiment [2], “no binding”.

B6: LSSEECWEALKWQGCLMSER (peptide)
chain: LSSEECWEALKWQGCLMSERGGGSGGGAEGDDPAKAAFNSLQASATEYIGYAWAMVVVIVGATIGIKLFKKFTSKAS
notes: as for B1
With B6, the binding result is given as “binds” in experiment [1] and “no binding” in experiment [2].

B7: IECWQDLQGTRLCWE (peptide)
chain: IECWQDLQGTRLCWEGGGSGGGAEGDDPAKAAFNSLQASATEYIGYAWAMVVVIVGATIGIKLFKKFTSKAS
notes: as for B1
Turning to B7, the binding result in experiment [1] is listed as “binds”; in experiment [2], “no binding”.

B8: GASTTCLEKYRERQWCKELT (peptide)
chain: GASTTCLEKYRERQWCKELTGGGSGGGAEGDDPAKAAFNSLQASATEYIGYAWAMVVVIVGATIGIKLFKKFTSKAS
notes: as for B1
As for B8, the binding result in experiment [1] is reported as “binds”; in experiment [2], “no binding”.

B9: GEAAECAYDSLGMAYCYAKE (peptide)
chain: GEAAECAYDSLGMAYCYAKEGGGSGGGAEGDDPAKAAFNSLQASATEYIGYAWAMVVVIVGATIGIKLFKKFTSKAS
notes: as for B1
Turning to B9, the binding result in experiment [1] is listed as “binds”; in experiment [2] it was “no binding”.

B10: GVETCYSDAMNTQYCWTTEL (peptide)
chain: GVETCYSDAMNTQYCWTTELGGGSGGGAEGDDPAKAAFNSLQASATEYIGYAWAMVVVIVGATIGIKLFKKFTSKAS
notes: as for B1
In the case of B10, the results for the binding result in experiment [1] and in experiment [2] were “binds” and “no binding”, respectively.

B11: SGTACRWGPSWLLCSLAGSP (peptide)
chain: SGTACRWGPSWLLCSLAGSPGGGSGGGAEGDDPAKAAFNSLQASATEYIGYAWAMVVVIVGATIGIKLFKKFTSKAS
notes: as for B1
As for B11, the binding result in experiment [1] is “binds”; in experiment [2] it was “no binding”.

B12: EVARCVVDAGGTWYCWAEMA (peptide)
chain: EVARCVVDAGGTWYCWAEMAGGGSGGGAEGDDPAKAAFNSLQASATEYIGYAWAMVVVIVGATIGIKLFKKFTSKAS
notes: as for B1
Regarding B12, the binding result is reported as “binds” in experiment [1] and “no binding” in experiment [2].

B13: GIREELCDKGLHKMCFREVR (peptide)
chain: GIREELCDKGLHKMCFREVRGGGSGGGAEGDDPAKAAFNSLQASATEYIGYAWAMVVVIVGATIGIKLFKKFTSKAS
notes: as for B1
Consider B13, for which the figures for the binding result in experiment [1] and in experiment [2] were “binds” and “no binding”, respectively.

B14: GESTCVTDLERVEYCWDEKS (peptide)
chain: GESTCVTDLERVEYCWDEKSGGGSGGGAEGDDPAKAAFNSLQASATEYIGYAWAMVVVIVGATIGIKLFKKFTSKAS
notes: as for B1
On to B14, for which the binding result is recorded as “binds” in experiment [1] and “no binding” in experiment [2].

B15: SFCEFNDWWPTCLV (peptide)
chain: SFCEFNDWWPTCLVGGGSGGGAEGDDPAKAAFNSLQASATEYIGYAWAMVVVIVGATIGIKLFKKFTSKAS
notes: as for B1
Take B15: the binding result in experiment [1] is “binds”; in experiment [2], “no binding”.

B16: STYSCIRDMGWAVYCWETTL (peptide)
chain: STYSCIRDMGWAVYCWETTLGGGSGGGAEGDDPAKAAFNSLQASATEYIGYAWAMVVVIVGATIGIKLFKKFTSKAS
notes: as for B1
B16: the binding result in experiment [1] is “binds”; in experiment [2], “no binding”.

B17: REVKCMKDLSGHEYCWAEPR (peptide)
chain: REVKCMKDLSGHEYCWAEPRGGGSGGGAEGDDPAKAAFNSLQASATEYIGYAWAMVVVIVGATIGIKLFKKFTSKAS
notes: as for B1
For B17, the binding result is listed as “binds” in experiment [1] and “no binding” in experiment [2].

B18: YDWVEACQKWPVLCMDSTMY (peptide)
chain: YDWVEACQKWPVLCMDSTMYGGGSGGGAEGDDPAKAAFNSLQASATEYIGYAWAMVVVIVGATIGIKLFKKFTSKAS
notes: as for B1
For B18, the binding result was “binds” in experiment [1] and “no binding” in experiment [2].

B19: GAQAWLCEQREEWCGQMLGT (peptide)
chain: GAQAWLCEQREEWCGQMLGTGGGSGGGAEGDDPAKAAFNSLQASATEYIGYAWAMVVVIVGATIGIKLFKKFTSKAS
notes: as for B1
For B19, the binding result in experiment [1] is recorded as “binds”; in experiment [2] it was “no binding”.

B20: VESECLLSLPNLRRCMMDRL (peptide)
chain: VESECLLSLPNLRRCMMDRLGGGSGGGAEGDDPAKAAFNSLQASATEYIGYAWAMVVVIVGATIGIKLFKKFTSKAS
notes: as for B1
In the case of B20, the binding result is on record as “binds” in experiment [1] and “no binding” in experiment [2].

B21: HPDKCFADVRALQECMESVR (peptide)
chain: HPDKCFADVRALQECMESVRGGGSGGGAEGDDPAKAAFNSLQASATEYIGYAWAMVVVIVGATIGIKLFKKFTSKAS
notes: as for B1
As to B21, the results for the binding result in experiment [1] and in experiment [2] were “binds” and “no binding”, respectively.

B22: VMDQCFESYAEMRKCMLDGS (peptide)
chain: VMDQCFESYAEMRKCMLDGSGGGSGGGAEGDDPAKAAFNSLQASATEYIGYAWAMVVVIVGATIGIKLFKKFTSKAS
notes: as for B1
Turning to B22, the binding result in experiment [1] was “binds”; in experiment [2], “no binding”.

B23: QIPAGCYESVQSLLECVQSA (peptide)
chain: QIPAGCYESVQSLLECVQSAGGGSGGGAEGDDPAKAAFNSLQASATEYIGYAWAMVVVIVGATIGIKLFKKFTSKAS
notes: as for B1
On to B23, for which the values for the binding result in experiment [1] and in experiment [2] were “binds” and “no binding”, respectively.

B24: TAGIECAYDKHLDQYCWWKE (peptide)
chain: TAGIECAYDKHLDQYCWWKEGGGSGGGAEGDDPAKAAFNSLQASATEYIGYAWAMVVVIVGATIGIKLFKKFTSKAS
notes: as for B1
With B24, the binding result in experiment [1] was “binds”; in experiment [2], “no binding”.
